B1: truncated βig-h3: recombinant human βig-h3 with EMI domain, all four fas-1 domains and RGD motif; residues 68-653 of SEQ ID NO: 1 (SEQ ID NO: 66) (protein, listed as Homo sapiens)
chain: WYQRKICGKSTVISYECCPGYEKVPGEKGCPAALPLSNLYETLGVVGSTTTQLYTDRTEKLRPEMEGPGSFTIFAPSNEAWASLPAEVLDSLVSNVNIELLNALRYHMVGRRVLTDELKHGMTLTSMYQNSNIQIHHYPNGIVTVNCARLLKADHHATNGVVHLIDKVISTITNNIQQIIEIEDTFETLRAAVAASGLNTMLEGNGQYTLLAPTNEAFEKIPSETLNRILGDPEALRDLLNNHILKSAMCAEAIVAGLSVETLEGTTLEVGCSGDMLTINGKAIISNKDILATNGVIHYIDELLIPDSAKTLFELAAESDVSTAIDLFRQAGLGNHLSGSERLTLLAPLNSVFKDGTPPIDAHTRNLLRNHIIKDQLASKYLYHGQTLETLGGKKLRVFVYRNSLCIENSCIAAHDKRGRYGTLFTMDRVLTPPMGTVMDVLKGDNRFSMLVAAIQSAGLTETLNREGVYTVFAPTNEAFRALPPRERSRLLGDAKELANILKYHIGDEILVSGGIGALVRLKSLQGDKLEVSLKNNVVSVNKEPVAEPDIMATNGVVHVITNVLQPPANRPQERGDELADSALEI
B2: fas-1 domain: recombinant protein containing the fourth fas-1 domain of human βig-h3 (SEQ ID NO: 64) (protein, listed as Homo sapiens)
chain: MGTVMDVLKGDNRFSMLVAAIQSAGLTETLNREGVYTVFAPTNEAFRALPPRERSRLLGDAKELANILKYHIGDEILVSGGIGALVRLKSLQGDKLEVSLKNNVVSVNKEPVAEPDIMATNGVVHVITNVL

Tests used:
[1] = system: Murine melanoma cells (B16F10) tumor; experiment: B16F10 tumor growth in BALB/c nude mice (Example 15-1); type: in vivo; details: for tumor growth inhibition compared with control: i.p. everyday from 7 days after inoculation
Protocol: Murine melanoma cells (B16F10) were cultured in RPMI 1640 containing 25 mM/L HEPES with 10% fetal bovine serum. Male BALB/c nude mice (5-6 weeks old) were implanted with 1×10^6 B16F10 cells into the flank subcutis and monitored tumor growth and neovascularization after systemic treatment with exogenous fas-1 domain (5 μM) or truncated βig-h3 (50 nM or 10 nM). Experimental groups were i.p. injected everyday from 7 days after tumor cell inoculation with the indicated concentration of fas-1 domain or truncated βig-h3 in a total volume of 0.1 ml PBS. The control group was given an equal volume of PBS each day. Each experimental group consisted of six to eight mice. Tumor sizes were measured using Vernier calipers every 2 to 3 days, and the measured values were substituted in the following equation (2) to calculate the volumes of the tumor. Volume of tumor=width^2×length×0.52. [Equation 2]
Wherein, ‘width’ is the shortest diameter.

HUVECs [2] = experiment: Migration of endothelial cells to vitronectin, transwell (Example 13-2); type: cell-based, human; details: for IC50: read-out: half-inhibition of migration toward vitronectin observed at; for inhibition of migration to vitronectin: various concentrations, 4 to 6 hours
Protocol: Cell migration assays were done in transwell plates (8 μm pore size, Costar, Cambridge, Mass.). The undersurface of the membrane was coated with 5 μg/ml of vitronectin at 4° C. and blocked for 1 hour at room temperature with PBS containing 2% BSA. HUVECs were suspended in medium at a density of 3×10^5 cells/ml, and 0.1 ml of the cell suspension was pre-incubated with or without the indicated concentration of the truncated βig-h3, the fas-1 domain and Regenin for 40 min at 37° C., then added to the upper compartment of the filter. Cells were allowed to migrate for 4 to 6 hours at 37° C. The filters were fixed with 8% glutaraldehyde and stained with crystal violet, and non-migrating cells on the upper surface of the filter were removed by wiping with a cotton swab. The extent of cell migration was determined by light microscopy, and within each well, counting was done in nine randomly selected microscopic high power fields (x200).

HUVEC = experiment: Adhesion of endothelial cells to vitronectin (Example 13-1); type: cell-based, human
Protocol: Flat-bottomed 96-well ELISA plates (Costar, Corning, Inc., NY) were incubated overnight at 4° C. with 5 μg/ml of vitronectin (Promega, Madison, Wis.) and blocked for 1 hour at room temperature with PBS containing 2% bovine serum albumin (BSA).
Primary human umbilical vein endothelial cells (HUVEC) were cultured at 37° C. in 5% CO2 in M199 medium supplemented with 20% fetal bovine serum. For all the experiments, HUVECs were used at passage 4 or less. HUVEC cells were suspended in medium at a density of 3×10^5 cells/ml, and 0.1 ml of the cell suspension was pre-incubated with or without the indicated concentration of the truncated βig-h3, the fas-1 domain and Regenin for 40 min at 37° C., then added to each well of the coated. After incubation for 5 to 10 minutes at 37° C., unattached cells were removed by rinsing with PBS. Attached cells were then incubated for 1 hour at 37° C. in 50 mM citrated buffer (pH 5.0) containing 3.75 mM p-nitrophenyl-N-acetyl-Dglycosamide and 0.25% Triton X-100. Enzyme activity was blocked by adding 50 mM glycine buffer (pH 10.4) containing 5 mM EDTA, and the absorbance was measured at 405 nm in a Bio-Rad model 550 microplate reader.

HUVECs [3] = experiment: Endothelial tube formation in Matrigel (Example 14); type: cell-based, human; details: for 70%-inhibition of tube formation observed at: concentration giving 70% inhibition; for inhibition of tube formation: various concentrations, 6 to 10 hours
Protocol: Matrigel (Chemicon, International Inc, Temecula, Calif.) was added (100 μl) into each well of a 96-well plate and polymerized for 30 minutes at 37° C. HUVECs were suspended in medium at a density of 3×10^5 cells/ml, and 0.1 ml of the cell suspension was pre-incubated with or without the indicated concentration of the truncated βig-h3, the fas-1 domain and Regenin for 40 min at 37° C., then seeded on the surface of the Matrigel. Cells were incubated for 6 to 10 hours at 37° C. The cells were then photographed, and branch points from 4 high-power fields (x200) were counted and averaged.

HUVECs [4] = experiment: Endothelial tube formation assay on Matrigel (Examples 9-1 and 11); type: cell-based, human
Protocol: First, 100 μl of Matrigel (Chemicon, International Inc, Temecula, Calif.) was added to each well of a 96-well plate and allowed to polymerize. HUVECs were suspended in medium at a density of 3×10^5 cells/ml, and 0.1 ml of the cell suspension was added to each well of the plate coated with Matrigel. At this time, 5 μM or 10 μM of the fas-1 domain (βig-h3 D-IV) prepared in Example 1 above was added together. A control was either treated with BSA or had no treatment. Thereafter, the cells were incubated at 37° C. for 16-18 hours. The cells were photographed, and endothelial tubes were counted and averaged.
For this purpose, the second fas-1 domain of βig-h3 (βig-h3 D-II) was prepared in the same manner as in Example 1-1 above. Since each domain of stabilin-II is insoluble, it was prepared in the form of soluble protein by cloning into the BamHI/XhoI sites of a Nus-conjugated pET43.1 vector (Novagen, USA). The prepared recombinant proteins were named “Nus-fas3” and “Nus-fas7”, respectively. A control to the second fas-1 domain of βig-h3 was treated with BSA, and a control to the fas-1 domain of stabilin-II was treated with a Nus protein. Thereafter, an endothelial tube formation assay was performed in the same manner as in Example 9-1.

[5] = various concentrations, vitronectin 5 μg/ml

Molecule	tumor growth inhibition ([1]; 10 nM (68 μg/kg), i.p. everyday)	tumor growth inhibition compared with control ([1]; 50 nM (340 μg/kg))	inhibition of migration of endothelial cells to vitronectin (HUVECs [2]; 500 nM)	IC50 (HUVECs [2])	inhibition of migration to vitronectin (HUVECs [2])	inhibition of adhesion to vitronectin (HUVEC; 500, 50 and 10 nM)	inhibition of adhesion to vitronectin (HUVEC; [5])	70%-inhibition of tube formation observed at (HUVECs [3])	inhibition of tube formation (HUVECs [3])	tumor growth inhibition compared with control ([1]; 5 μM (10 mg/kg))	inhibition of adhesion to vitronectin (HUVEC; 500 nM)	inhibition of endothelial tube formation (HUVECs [4]; 5 μM or 10 μM, 16-18 hours)	in vitro angiogenesis inhibitory effect compared with YH motif-containing peptide fragment of 18 amino acids (HUVECs [4]; 10 μM fas-1 domain vs 1 mM YH peptide)
B1	inhibitory effect of tumor growth	equivalent levels of tumor growth inhibition	strongly suppressed	50 nM	dose-dependent inhibition	clear dose-response effect	dose-dependent inhibition	50 nM	dose-dependent inhibition	–	–	–	–
B2	–	–	–	5000 nM	dose-dependent inhibition	–	dose-dependent inhibition	5000 nM	dose-dependent inhibition	equivalent levels of tumor growth inhibition	ineffective	inhibited the formation of endothelial tubes on Matrigel in a dose-dependent manner	much higher
